# Laboratory results: the supplement of paper PMC7125110
# ± gives the standard error. Variants at the floor of the assay were thinned out.
# B1: glmS ribozyme (parent)
# chain: AUAAAAGCGCCAGAACUACAGAAAUGUAGUUGACGAGGAGGAGGUUUAUCGAAUUUUCGGCGGAUGCCUCCAAA
# Variants of: B1
# Experiment: self-cleavage kobs at 10000 uM GlcN6P; higher = faster cleavage; RNA array
# Conditions: with glucosamine-6-phosphate
# Procedure, shortened: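 Tiles bearing barcoded ribozyme variants, transcribed in situ by E. coli RNA polymerase on sequenced MiSeq chips, were imaged over ~14 h at 37 °C using a hybridised Cy3 probe. Glucosamine-6-phosphate was supplied at 40 μM to 10 mM in HEPES/KCl/Mg(OAc)2 buffer. kobs came from one- or two-exponential decay fits to normalised per-tile medians, and weighted Michaelis–Menten fits then provided kcat and KM.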
row,Variant,self-cleavage kobs at 10000 uM GlcN6P
1,G59C G63C C70A,< 1e-05 s⁻¹
2,C11A U69G C71G,4.63e-05 ± 1.5e-05 s⁻¹
3,A15G A52G C71U,0.00137 ± 0.00021 s⁻¹
4,G9A A15U G29U C68G,< 1e-05 s⁻¹
5,C16A G43A G44A A48U,< 1e-05 s⁻¹
6,C58U C61U C71U,< 1e-05 s⁻¹
7,U30C G66A C71U,0.000123 ± 2.3e-05 s⁻¹
8,C10A G59U,7.46e-05 ± 7.9e-06 s⁻¹
9,C16A U31C G41C C68A,< 1e-05 s⁻¹
10,U30A A33G C61G C70A,< 1e-05 s⁻¹
11,G37C A42C U57A,< 1e-05 s⁻¹
12,U55C U57A,0.00024 ± 4.6e-05 s⁻¹
13,G32C G38U A42C G43C A52C,< 1e-05 s⁻¹
14,A6C G9A C34A G40C G43A C50U U54A C58G C68U,< 1e-05 s⁻¹
15,C10G U57G C67A,< 1e-05 s⁻¹
16,A15C C16G G37C C58A G63C,< 1e-05 s⁻¹
17,A14G C16A G29C A53G,0.000885 ± 0.00021 s⁻¹
18,G7A G35C G41U,< 1e-05 s⁻¹
19,G7U G32U G59C G62U U65G,< 1e-05 s⁻¹
20,C11U A12G A14U,0.000156 ± 3.3e-05 s⁻¹
21,C11A U54G A64G U69G,9.78e-05 ± 2.2e-05 s⁻¹
22,C10U U49G C58G,< 1e-05 s⁻¹

row,Variant,self-cleavage kobs at 10000 uM GlcN6P
1,C11A A48G C50A C70A,5.38e-05 ± 1.9e-05 s⁻¹
2,A14C A36G G51U,< 1e-05 s⁻¹
3,A36G A53C C67A,< 1e-05 s⁻¹
4,G41U U69A,3.54e-05 ± 1.5e-05 s⁻¹
5,G44A U46G U54G,0.000373 ± 0.0001 s⁻¹
6,A42G U46A A64G,0.00462 ± 0.0009 s⁻¹
7,A6G U54A U56A,0.000141 ± 2.8e-05 s⁻¹
8,A14G C34A G38A C67A,< 1e-05 s⁻¹
9,G21U G41C C70U,0.000298 ± 8.1e-05 s⁻¹
10,G43A G51U G63C,< 1e-05 s⁻¹
11,A14C U57A C67A,3.08e-05 ± 1.4e-05 s⁻¹
12,A52C C68U C70U,3.87e-05 ± 1.7e-05 s⁻¹
13,C8A G38A G40C U57C,< 1e-05 s⁻¹
14,G40A G51U C68U,< 1e-05 s⁻¹
15,U31A A36G U49G C50U C58A,< 1e-05 s⁻¹
16,G13U A42G C50U,< 1e-05 s⁻¹
17,A36G G37C A42C A48C U65G,< 1e-05 s⁻¹
18,G32C U56A C71A,3.09e-05 ± 1.5e-05 s⁻¹
19,U46G C61G C71G,4.27e-05 ± 1.8e-05 s⁻¹
20,U47A A53U C58A,0.000151 ± 3e-05 s⁻¹
21,A36C C61A,< 1e-05 s⁻¹
22,U49A U65G C67G U69A,< 1e-05 s⁻¹

row,Variant,self-cleavage kobs at 10000 uM GlcN6P
1,C10U G43U G60U,< 1e-05 s⁻¹
2,G40A C58A,7.56e-05 ± 1.6e-05 s⁻¹
3,A15U C58U G59U,< 1e-05 s⁻¹
4,G9C G13C A14U U31A A48G C61A,< 1e-05 s⁻¹
5,A36U G59U G60C,< 1e-05 s⁻¹
6,C50G A53C C71A,6.73e-05 ± 2.7e-05 s⁻¹
7,G44U C58U G62U C68A,< 1e-05 s⁻¹
8,G7U A12C U45C,< 1e-05 s⁻¹
9,C8G G51U U69G,0.00122 ± 0.00049 s⁻¹
10,A14C U55A C71U,0.00514 ± 0.0013 s⁻¹
11,G44U U65A,5.28e-05 ± 1.3e-05 s⁻¹
12,U47A U54G U55A C70A,0.000105 ± 3e-05 s⁻¹
13,G13A A36C G38U,< 1e-05 s⁻¹
14,A12G A36C C67G,< 1e-05 s⁻¹
15,G7A G29C G32U U57C C58A,< 1e-05 s⁻¹
16,A14U U45G C61U,< 1e-05 s⁻¹
17,C16G U45G U46A,0.000584 ± 0.00015 s⁻¹
18,C8A C50G U54G C68U,6.41e-05 ± 2.3e-05 s⁻¹
19,G59C G66A,< 1e-05 s⁻¹
20,G37A G40A C58U G66C,< 1e-05 s⁻¹
21,A33G A42C U47C G60A,< 1e-05 s⁻¹
22,A39U G44A C67G,0.00582 ± 0.0014 s⁻¹

row,Variant,self-cleavage kobs at 10000 uM GlcN6P
1,C11A U30A C70G,5.91e-05 ± 1.5e-05 s⁻¹
2,C8U C61U C68G,0.000133 ± 4.3e-05 s⁻¹
3,G7U C8A G9U U31C A33U,< 1e-05 s⁻¹
4,C58U G59A,< 1e-05 s⁻¹
5,G51C G60U C71A,< 1e-05 s⁻¹
6,C10A A12G G35C U56A U69A,0.000264 ± 7.7e-05 s⁻¹
7,A39U U55C A64G,0.0229 ± 0.0073 s⁻¹
8,G38C U49A G51U C71U,< 1e-05 s⁻¹
9,A15G G32U G43U C61G G63U A64G G66A,< 1e-05 s⁻¹
10,U30G A39C U56A C70G,< 1e-05 s⁻¹
11,U31A A39C U56G,0.00147 ± 0.0004 s⁻¹
12,G9U G62U,< 1e-05 s⁻¹
13,A12C G29U U69G,3.54e-05 ± 1.6e-05 s⁻¹
14,C16G G32C G43U U47G U56A,< 1e-05 s⁻¹
15,C8G A12C A33C,< 1e-05 s⁻¹
16,G32A A42G A53G,0.00295 ± 0.00072 s⁻¹
17,C11A A14G C34U G66C,< 1e-05 s⁻¹
18,A36U A39C U65C,< 1e-05 s⁻¹
19,G7U A12U G35U G51U G66A,< 1e-05 s⁻¹
